Results taken from the Human Domainome abundance scans (Beltran et al. 2025).

B1: Protein maelstrom homolog, residues 3 to 71; numbered along this chain, Q96JY0 (parent)
chain: NRKASRNAYYFFVQEKIPELRRRGLPVARVADAIPYCSSDWALLREEEKEKYAEMAREWRAAQGKDPGP
B2: Homeobox protein cut-like 1, residues 941 to 1008; numbered along this chain, P39880 (parent)
chain: QEVDTIELTRQVKEKLAKNGICQRIFGEKVLGLSQGSVSDMLSRPKPWSKLTQKGREPFIRMQLWLNG

Variants of: B1
Assay: abundance fitness (aPCA) (normalised: wild type 0, dead -1); higher = more abundant; growth selection in yeast, the domain comes from the species named
Details: Homo sapiens

Abundance fitness, by site and new letter:
S5: L -0.593, V -0.087, D 0.12, M -0.118, E 0.137, P -0.24, A 0.013, K -0.206, Y -0.36, Q -0.088, G -0.03, R -0.228, I 0.278, T -0.202, C -0.655
R2: A -0.407, D 0.122, K 0.045, M 0.093, F -0.095, H 0.058, Y 0.078, P 0.06, I 0.162, G 0.021, N -0.2, S 0.091, L -0.013, V -0.288, T 0.126, E 0.124, W -0.141, C 0.123
K3: N -0.001
A4: K -0.095, S 0, E 0.159, T 0.049, G 0.032, W -0.262, M -0.011, R -0.09, H -1.04, D -0.462, L 0.048, N -0.371, C -0.395, V -0.001, P -0.246
R6: P -0.179, Q -0.447, L 0.046, V -0.467, E 0.061, T 0.109, K -0.419, A -0.097, C -0.123, S -0.228, Y -0.175, M -0.064
A8: H -0.498, F -0.936, C -0.269, K -0.483, P -0.221, E -0.294, M -0.357, L -0.783, Q -0.304, N -0.429, I -0.27, D -0.046, G -0.057
N7: S 0.045, Q -0.147, K -0.05, T 0, F -0.233, C -0.497, Y -0.44, D 0.212, W -0.257, I -0.355, H -0.267, V -0.535, A -0.993, P -0.285, G 0.01, M 0.015, L -0.168

Variants of: B2
Assay: as above
Details: Homo sapiens

Abundance fitness of substitutions, site by site:
G55: C -0.17
R24: G -0.224, L -0.253, T -0.268, Q -0.088, M -0.315
Q53: K 0.076
L64: Q 0.144, S 0.068
P47: L -0.029, C -0.086, A -0.084
K54: L -0.174, H -0.111, Y -0.431, E 0.159, T -0.101
V3: Q -0.032, I 0.19, N -0.335, R -0.051, Y -0.227, S -0.067, H -0.199, G -0.154
L8: M 0.019, T 0.003, I 0.131, S -0.002
Q63: C -0.441, H 0.041, I -0.2, T -0.184, G -0.098
M62: G -0.591, N -1.08, W -0.335, L -0.227
K13: W -0.459, G -0.419, Q -0.1
N67: T -0.041, V -0.191, H -0.128
V12: S -0.091, I -0.338, N -0.28
I60: R 0.071, E -0.152, M -0.054
D4: C -0.243, M -0.153, G -0.312, T -0.25, A -0.376
G20: M -0.231, H -0.24, C -0.317, S -0.112, D -0.279, R -0.048, T -0.087, Y -0.104
Q35: S 0.034, E 0.124, F 0.044, L -0.003, Y 0.015, A 0.039, K -0.016
T5: V -0.383, A -0.253, C -0.233, H -0.145, P -0.354
L31: K -0.233
